Experiments:
[1] = biological target: Skp1tr-F-box^Fbw7 complex (human) (UniProt P63208); test: SPR, complex immobilised, Cul1 NTD injected
[2] = biological target: Skp1tr-F-box^Fbw7 complex (human) (UniProt P63208); test: SPR
Target sequence in this assay (P63208 other isoform, or with tags, fused parts or gaps, chain 1 of 2): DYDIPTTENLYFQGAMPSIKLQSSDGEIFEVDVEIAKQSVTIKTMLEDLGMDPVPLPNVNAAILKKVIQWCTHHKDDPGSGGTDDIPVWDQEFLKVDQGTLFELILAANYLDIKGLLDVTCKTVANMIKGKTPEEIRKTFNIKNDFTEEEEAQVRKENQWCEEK
Target sequence in this assay (Q969H0 other isoform, or with tags, fused parts or gaps, chain 2 of 2, further chain): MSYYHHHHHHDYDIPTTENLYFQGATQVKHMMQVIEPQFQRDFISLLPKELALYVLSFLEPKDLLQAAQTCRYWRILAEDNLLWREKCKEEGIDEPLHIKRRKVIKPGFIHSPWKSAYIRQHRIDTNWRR

[3] = biological target: Skp1tr-F-box^Fbw7 complex (human) (UniProt P63208); test: ELISA
Target sequence in this assay (P63208 other isoform, or with tags, fused parts or gaps, chain 1 of 2): as the sequence (P63208 other isoform, or with tags, fused parts or gaps, chain 1 of 2) above
Target sequence in this assay (Q969H0 other isoform, or with tags, fused parts or gaps, chain 2 of 2, further chain): as the sequence (Q969H0 other isoform, or with tags, fused parts or gaps, chain 2 of 2, further chain) above

fold weaker than with Skp1-F-box^Fbw7 [1]: 1000 fold | Kd [2]: 3.6 nM | EC50 [3]: 11 nM
Substance: Cul1 N-terminal domain (NTD) (from UniProt Q13616 1-410)
